Assays:
[1] = biological target: CD3 on T cells of human peripheral blood mononuclear cells (human) (UniProt P07766); assay: cell-based or functional assay
[2] = biological target: human CD3εδ (human) (UniProt P07766); assay: SPR (Biacore T200), binding to CD3εδ against binding to CD3εγ
Chain of human CD3εδ (human) (P07766 23-126, stated change not applied, chain 1 of 2): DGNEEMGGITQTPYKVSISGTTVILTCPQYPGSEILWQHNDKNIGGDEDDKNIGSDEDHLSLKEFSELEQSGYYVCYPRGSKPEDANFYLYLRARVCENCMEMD
Chain of human CD3εδ (human) (P04234 22-105, stated change not applied, chain 2 of 2, further chain): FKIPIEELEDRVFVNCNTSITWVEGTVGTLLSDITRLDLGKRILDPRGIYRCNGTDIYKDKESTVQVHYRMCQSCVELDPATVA

Chain of CD3 on T cells of human peripheral blood mononuclear cells (human) (P07766 23-207): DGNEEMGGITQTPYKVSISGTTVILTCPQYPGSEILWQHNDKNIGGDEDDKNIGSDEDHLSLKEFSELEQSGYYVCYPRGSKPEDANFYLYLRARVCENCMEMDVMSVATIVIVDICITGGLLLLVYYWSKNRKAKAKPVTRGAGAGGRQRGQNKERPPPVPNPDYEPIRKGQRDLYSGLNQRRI

- IFNγ release EC50 [1]: 3 pM
- IFNγ release Maximum concentration [1]: 16 ng/mL
- T cell activation (CD3+ CD8+ CD69+), human PBMC only, flow cytometry [1]: 60%
- ratio of the binding strength to CD3εδ/binding strength to CD3εγ [2]: 19.3 fold
Substance: CD3 (UCHT1)-binding monoclonal antibody
- Death of cancer cells EC50 (MDA-MB-231 + human PBMC, flow cytometry) [1]: 0.5 pM
- Death of cancer cells Emax (%) [1]: 46%

Source: patent US20260258128A1
